The record followed here is patent US20250026849A1 (ARCELLX, published 2025).

Sequences and labels used below:
B1: D-domain SEQ ID NO: 275 (designed binder)
chain: MGSWVEFKYHLAVIKFTLEALGGSEAELADFEEEIARFEMILQQYKGKGNPEVEALRKEAAAIRDELQAYRHN
B2: D-domain SEQ ID NO: 318 (designed binder)
chain: MGSWIVFKQSLAWIKEHLEALGGSEAELAEFEFYIANFEHTLQNYKGKGNPEVEALRKEAAAIRDELQAYRHN
B3: D-domain SEQ ID NO: 319 (designed binder)
chain: MGSWIYFKDSLAYIKKYLEALGGSEAELATFEYYIANFEHELQYYKGKGNPEVEALRKEAAAIRDELQAYRHN
B4: D-domain SEQ ID NO: 304 (designed binder)
chain: MGSWSYFKYGLATIKEKLEALGGSEAELADFETWIAMFEKQLQEYKGKGNPEVEALRKEAAAIRDELQAYRHN
B5: D-domain SEQ ID NO: 313 (designed binder)
chain: MGSWGYFKHGLAHIKSSLEALGGSEAELADFEVWIAAFENELQEYKGKGNPEVEALRKEAAAIRDELQAYRHN
B6: D-domain SEQ ID NO: 301 (designed binder)
chain: MGSWIYFKYGLAHIKTRLEALGGSEAELADFEQWIAEFEKMLQDYKGKGNPEVEALRKEAAAIRDELQAYRHN
B7: D-domain SEQ ID NO: 306 (designed binder)
chain: MGSWQYFKYGLAIIKIKLEALGGSEAELADFEAWIATFEKQLQHYKGKGNPEVEALRKEAAAIRDELQAYRHN
B8: D-domain SEQ ID NO: 305 (designed binder)
chain: MGSWHYFKNGLAIIKEKLEALGGSEAELADFEIWIAMFEMELQEYKGKGNPEVEALRKEAAAIRDELQAYRHN
B9: D-domain SEQ ID NO: 302 (designed binder)
chain: MGSWGYFKYGLATIKHRLEALGGSEAELADFELWIAKFEEQLQVYKGKGNPEVEALRKEAAAIRDELQAYRHN
B10: D-domain SEQ ID NO: 309 (designed binder)
chain: MGSWYYFKYGLAVIKGKLEALGGSEAELADFETWIAKFENHLQSYKGKGNPEVEALRKEAAAIRDELQAYRHN
B11: D-domain SEQ ID NO: 312 (designed binder)
chain: MGSWTYFKFGLAHIKDSLEALGGSEAELADFEQWIAMFEQDLQVYKGKGNPEVEALRKEAAAIRDELQAYRHN
B12: D-domain SEQ ID NO: 311 (designed binder)
chain: MGSWDYFKYGLALIKIKLEALGGSEAELADFEVWIAQFEMALQVYKGKGNPEVEALRKEAAAIRDELQAYRHN
B13: D-domain SEQ ID NO: 310 (designed binder)
chain: MGSWTYFKYGLALIKYRLEALGGSEAELADFEEWIAQFEVSLQHYKGKGNPEVEALRKEAAAIRDELQAYRHN
B14: D-domain SEQ ID NO: 298 (designed binder)
chain: MGSWSYFKYGLAIIKIRLEALGGSEAELADFERWIAAFEHDLQYYKGKGNPEVEALRKEAAAIRDELQAYRHN
B15: D-domain SEQ ID NO: 299 (designed binder)
chain: MGSWSYFKFGLAHIKLRLEALGGSEAELADFEQWIASFEEQLQTYKGKGNPEVEALRKEAAAIRDELQAYRHN
B16: D-domain SEQ ID NO: 303 (designed binder)
chain: MGSWEYFKYGLATIKMHLEALGGSEAELADFEHWIAHFEHQLQMYKGKGNPEVEALRKEAAAIRDELQAYRHN
B17: D-domain SEQ ID NO: 308 (designed binder)
chain: MGSWVYFKYGLAVIKEKLEALGGSEAELADFETWIAEFEFGLQQYKGKGNPEVEALRKEAAAIRDELQAYRHN
B18: D-domain SEQ ID NO: 307 (designed binder)
chain: MGSWVYFKHGLAVIKMRLEALGGSEAELADFETWIAQFEMTLQEYKGKGNPEVEALRKEAAAIRDELQAYRHN
B19: D-domain SEQ ID NO: 300 (designed binder)
chain: MGSWSYFKWGLAHIKLRLEALGGSEAELADFEFWIAEFEGLLQDYKGKGNPEVEALRKEAAAIRDELQAYRHN
B20: D-domain SEQ ID NO: 314 (designed binder)
chain: MGSWGYFKTGLAIIKAQLEALGGSEAELADFELWIAQFEETLQFYKGKGNPEVEALRKEAAAIRDELQAYRHN
B21: D-domain SEQ ID NO: 295 (designed binder)
chain: MGSWFYFKQKLAFIKWYLEALGGSEAELANFEIYIAEFEVMLQQYKGKGNPEVEALRKEAAAIRDELQAYRHN
B22: D-domain SEQ ID NO: 282 (designed binder)
chain: MGSWQNFKYHLAMIKWYLEALGGSEAELANFEEFIAQFEINLQHYKGKGNPEVEALRKEAAAIRDELQAYRHN
B23: D-domain SEQ ID NO: 283 (designed binder)
chain: MGSWYNFKYHLAIIKWWLEALGGSEAELADFEHYIADFERNLQEYKGKGNPEVEALRKEAAAIRDELQAYRHN
B24: D-domain SEQ ID NO: 284 (designed binder)
chain: MGSWYQFKYHLAIIKWYLEALGGSEAELAGFENYIATFEQELQQYKGKGNPEVEALRKEAAAIRDELQAYRHN
B25: D-domain SEQ ID NO: 286 (designed binder)
chain: MGSWVGFKAHLAIIKWYLEALGGSEAELAGFEIFIADFEALLQMYKGKGNPEVEALRKEAAAIRDELQAYRHN
B26: D-domain SEQ ID NO: 317 (designed binder)
chain: MGSWEVFKHELAVIKDYLEALGGSEAELAHFEWGIAWFEGFLQDYKGKGNPEVEALRKEAAAIRDELQAYRHN
B27: D-domain SEQ ID NO: 315 (designed binder)
chain: MGSWAYFKYGLAVIKLHLEALGGSEAELADFERYIAEFEYELQAYKGKGNPEVEALRKEAAAIRDELQAYRHN
B28: D-domain SEQ ID NO: 292 (designed binder)
chain: MGSWFAFKHRLAVIKYMLEALGGSEAELAFFEHWIAQFEHDLQQYKGKGNPEVEALRKEAAAIRDELQAYRHN
B29: D-domain SEQ ID NO: 294 (designed binder)
chain: MGSWYKFKHKLAVIKYMLEALGGSEAELAWFEEWIAEFEVTLQDYKGKGNPEVEALRKEAAAIRDELQAYRHN
B30: D-domain SEQ ID NO: 293 (designed binder)
chain: MGSWYEFKHRLAVIKYMLEALGGSEAELAFFENWIAQFEHELQTYKGKGNPEVEALRKEAAAIRDELQAYRHN
B31: D-domain SEQ ID NO: 321 (designed binder)
chain: MGSWFTFKQNLAWIKLHLEALGGSEAELARFEYYIADFENKLQLYKGKGNPEVEALRKEAAAIRDELQAYRHN
B32: D-domain SEQ ID NO: 316 (designed binder)
chain: MGSWLDFKEGLADIKRSLEALGGSEAELADFEGVIALFEWKLQTYKGKGNPEVEALRKEAAAIRDELQAYRHN
B33: D-domain SEQ ID NO: 281 (designed binder)
chain: MGSWIEFKYKLAIIKFYLEALGGSEAELAHFEHWIADFEFVLQQYKGKGNPEVEALRKEAAAIRDELQAYRHN
B34: D-domain SEQ ID NO: 290 (designed binder)
chain: MGSWTGFKYRLAIIKFMLEALGGSEAELAFFEQWIADFENELQYYKGKGNPEVEALRKEAAAIRDELQAYRHN
B35: D-domain SEQ ID NO: 287 (designed binder)
chain: MGSWVNFKYKLAIIKYMLEALGGSEAELAFFEDWIAEFERTLQQYKGKGNPEVEALRKEAAAIRDELQAYRHN
B36: D-domain SEQ ID NO: 291 (designed binder)
chain: MGSWHNFKYRLAIIKFMLEALGGSEAELAWFENWIADFEDSLQDYKGKGNPEVEALRKEAAAIRDELQAYRHN
B37: D-domain SEQ ID NO: 289 (designed binder)
chain: MGSWTNFKYKLAVIKFMLEALGGSEAELAFFEDWIAGFEIDLQNYKGKGNPEVEALRKEAAAIRDELQAYRHN
B38: D-domain SEQ ID NO: 288 (designed binder)
chain: MGSWSNFKYRLAVIKYMLEALGGSEAELAFFEDWIADFELHLQVYKGKGNPEVEALRKEAAAIRDELQAYRHN
B39: D-domain SEQ ID NO: 320 (designed binder)
chain: MGSWDHFKYNLAWIKKYLEALGGSEAELATFEWYIANFEKRLQDYKGKGNPEVEALRKEAAAIRDELQAYRHN
B40: D-domain SEQ ID NO: 297 (designed binder)
chain: MGSWGNFKYRLAIIKFHLEALGSSEAELATFEAWIANFESMLQNYKGKGNPEVEALRKEAAAIRDELQAYRHN
B41: D-domain SEQ ID NO: 279 (designed binder)
chain: MGSWLSFKHHLALIKWYLEALGGSEAELASFEAWIALFEHQLQQYKGKGNPEVEALRKEAAAIRDELQAYRHN
B42: D-domain SEQ ID NO: 296 (designed binder)
chain: MGSWFSFKHHLAVIKWNLEALGGSEAELASFEEQIAEFESVLQAYKGKGNPEVEALRKEAAAIRDELQAYRHN

For this assay, the target named is T1, BCMA (Homo sapiens (Human), UniProt Q02223 1-54, limits assumed).
T1 sequence: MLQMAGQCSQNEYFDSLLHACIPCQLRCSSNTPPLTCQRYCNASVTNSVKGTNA
In words: ELISA, format not described. Also noted: unit not given here. (In an ELISA, binding on a coated surface is turned into a signal by an enzyme label.)
On to B1, for which the ELISA_avg came to 6.92. With B2 the figure was 10.6; with B3, 3.2. With B4 the figure was 18.1; with B5, 18.5; with B6, 21.1. The figure for B7 is 10.3. B8 had an ELISA_avg of 19.9. The molecule B9 had an ELISA_avg of 14. The figure for B10 is 3.84; for B11 it is 17. B12 showed an ELISA_avg of 15.8.

Molecule B13 registered an ELISA_avg of 15.2. The figure for B14 is 13.3; for B15 it is 18.4.

Regarding B16, the ELISA_avg is 18.4. Consider B17, for which the ELISA_avg came to 17.6. With B18 the figure was 21.4; with B19, 17.6. In turn, B20 gave an ELISA_avg of 12.8. The molecule B21 gave an ELISA_avg of 7.23. Turning to B22, the ELISA_avg stood at 9.55. The figure for B23 is 8.63.

With B24, the ELISA_avg stood at 18.4. The figure for B25 is 9.71; for B26 it is 9.33. Consider B27, for which the ELISA_avg is 13.4. On to B28, for which the ELISA_avg stood at 12. With B29 the figure was 4.54; with B30, 3.71; with B31, 14.2.

The molecule B32 gave an ELISA_avg of 3.03.

With B33, the ELISA_avg was found to be 14.9. The figure for B34 is 13.9. The figure for B35 is 7.39. With B36 the figure was 13.6; with B37, 11.4; with B38, 9.34. B39 returned an ELISA_avg of 9.81. With B40 the figure was 22.7; with B41, 6.3; with B42, 6.45.
